Results: publication PMC4820614

Target: T1, full-length rat TRPV2 (rat), Q9WUD2
T1 chain: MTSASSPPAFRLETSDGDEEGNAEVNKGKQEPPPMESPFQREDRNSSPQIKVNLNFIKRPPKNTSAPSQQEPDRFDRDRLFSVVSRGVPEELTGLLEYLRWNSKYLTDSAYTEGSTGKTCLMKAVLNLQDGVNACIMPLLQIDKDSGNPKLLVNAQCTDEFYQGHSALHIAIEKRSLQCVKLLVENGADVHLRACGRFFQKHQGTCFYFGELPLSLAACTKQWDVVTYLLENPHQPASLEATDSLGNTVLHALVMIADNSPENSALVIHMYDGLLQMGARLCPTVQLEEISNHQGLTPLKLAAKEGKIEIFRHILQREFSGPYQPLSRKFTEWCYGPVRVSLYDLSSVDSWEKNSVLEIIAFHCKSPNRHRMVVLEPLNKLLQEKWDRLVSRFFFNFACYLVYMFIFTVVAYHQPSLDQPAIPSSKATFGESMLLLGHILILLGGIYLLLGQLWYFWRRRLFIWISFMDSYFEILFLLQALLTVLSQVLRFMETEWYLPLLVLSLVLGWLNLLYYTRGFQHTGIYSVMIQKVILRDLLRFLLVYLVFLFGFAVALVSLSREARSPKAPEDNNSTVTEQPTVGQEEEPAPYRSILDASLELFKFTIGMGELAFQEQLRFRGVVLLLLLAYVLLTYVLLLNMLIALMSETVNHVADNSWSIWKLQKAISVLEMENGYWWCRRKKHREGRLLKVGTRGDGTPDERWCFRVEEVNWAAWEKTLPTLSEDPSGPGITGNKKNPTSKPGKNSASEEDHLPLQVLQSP
Test: cryo-EM structure; single particle cryo-EM of purified rat TRPV2 without ligand, 2.5 mg/ml, in decyl MNG, 150 mM NaCl, 20 mM HEPES pH 8.0, 1.0 mM DTT; no added lipids
Conditions: remark: other sources report otherwise

B1: full-length rat TRPV2, Q9WUD2 1-761 (natural protein)
chain: T1 chain
stoichiometry N: 4
